# According to the DeepSol protein solubility set:
# Assay: soluble on expression in E. coli; label from the status in PepcDB or PDB records
row,Sequence,soluble on expression in E. coli
1,RSKYNAKKVVIDNIKFDSKAEAAYYQQLKLLKMSGEVVSFDLQPEFVLQESFRKNGKLYRAIKYKADFLVRYSDGHEELIDIKGMLTKEFRIKQKLFELRYMQSIKCLKLKGRNFVEV,not soluble
2,RTCRIHEISCGAHSTQCIPVSWRCDGENDCDSGEDEENCGN,soluble
3,SAAGSEATTPVIVAAGAGGEEGEHVKPFKPEKAKEIIMSLQQPAIFCNMVFDWPARHWNAKYLSQVLHGKQIRFRMGMKSMSTVPQFETTCNYVEATLEEFLTWNCDQSSISGPFRDYDHSKFWAYADYKYFVSLFEDKTDLFQDVKWSDFGFPGRNGQESTLWIGSLGAHTPCHLDSYGCNLVFQVQGRLECNGMIIAPGPQAILLPQPLKYLGLQETMASLSS,soluble
4,SAASEHRCVGCGFRVKSLFIQYSPGNIRLMKCGNCKEVADEYIECERMIIFIDLILHRPKVYRHVLYNAINPATVNIQHLLWKLVFAYLLLDCYRSLLLRKSDEESSFSDSPVLLSIKVRSFLFNGLN,soluble
5,SAAVALRDSAQGTVTFEDVAVNFSQEEWSLLSEAQRCLYHDVMLENLTLISSLGCWYGAKDETPSKQTLSIQQESPLRTHWTGVCTKKVHLWGMCGPLLGDILHQGTQHNQKLNGFGAYEKKLDDDANHHQDQKQHIGEKSYRSNAKENE,soluble
6,SADDFGFFSSSESGAPEAAEEDPAAAFLAQQESEIAGIENDEGFGAPAGSHAAPAQPGPTSGAGSEDMGTTVNGDVFQEANGPADGYAAIAQADRLTQEPESIRKWREEQRKRLQELDAASKVTEQEWREKAKKDLEEWNQRQSEQVEKNKINNRASEEAFVKESKEETPGTEWEKVAQLCDFNPKSSKQCKDVSRLRSVLMSLKQTPLSR,soluble
7,SADSKEGVLPLTAASTAPISFGFTRTSARRRLADSGDGAGPSPEEKDFLKTVEGRELQSVKPQEAPKELVIPLIQNGHRRQPPARPPGPSTDTGALADGVVSQAVKELIAESKKSLEERENAGVDPTLAIPMIQKGCTPSGEGADSEPRAETVPEEANYEAVPVEAYGLAMLRGMGWKPGEGIGRTFNQVVKPRVNSLRPKGLGLGANLTEAQALTPTGPSRMPRPDEEQEKDKEDQPQGLVPGGAVVVLSGPHRGLYGKVEGLDPDNVRAMVRLAVGSRVVTVSEYYLRPVSQQEFDKNTLDLRQQNGTASSRKTLWNQELYIQQDNSERKRKHLPDRQDGPAAKSEKAAPRSQHWLHRDLRVRFVDNMYKGGQYYNTKMIIEDVLSPDTCVCRTDEGRVLEGLREDMLETLVPKAEGDRVMVVLGPQTGRVGHLLSRDRARSRALVQLPRENQVVELHYDAICQYMGPSDTDDD,soluble
8,SAGTGLVAGEVVVDALPYFDQGYEAPGVREAAAALVEEETRRYRPTKNYLSYLTAPDYSAFETDIMRNEFERLAARQPIELLSMKRYELPAPSSGQKNDITAWQECVNNSMAQLEHQAVRIENLELMSQHGCNAWKVYNENLVHMIEHAQKELQKLRKHIQDLNWQRKNMQLTAGSKLREMESNWVSLVSKNYEIERTIVQLENEIYQIKQQHGEANKENIRQDF,soluble
9,SAMKPTAGPTTNADLTSAPPHDIFISHAWEDKADFVEALAHTLRAAGAEVWYDDFSLRPGDSLRRSIDKGLGSSRFGIVVLSTHFFKKEWPQKELDGLFQLESSGRSRILPIWHKVSKDEVASFSPTMADKLAFNTSTKSVDEIVADLMAIIRD,soluble
10,SAMNGFERELQSRVLSVIPHGELEGVNGPLQNYTKTMNQALQHEHVVAAAPYVRFTGLAEKGSKLKAIEVRGVDPAYEQAVSSMSDFIDPEAWQNFYSGQQQVILGRGVANELKVQVGDYVTLMIPQTGGTNKVQAPKRVRVKVAGFLTLNGQIDHSLALVPLADAQQYVRLGDGVTGISLKTDDVLDAPSIVREVGNLVNVYVYLKSWQQQFGFLYRDIQLVRT,soluble
11,SAQEKMELDLELPPGTGGSPAEGGGSGGGGGLRRSNSAPLIHGLSDTSPVFQAEAPSARRNSTTFPSRHGLLLPASPVRMHSSRLHQIKQEEGMDLINRETVHEREVQTAMQISHSWEESFSLSDNDVEKSASPKRIDFIPVSPAPSPTRGIGKQCFSPSLQSFVSSNGLPPSPIPSPTTRFTTRRSQSPINCIRPSVLGPLKRKCEMETEYQPKRFFQGITNMLSSDVAQLSDPGVCVSSDTLDGNSSSAGSSCNSPAKVSTTTDSPVSPAQAASPFIPLDELSSK,soluble
12,SATFVSELEAAKKNLSEALGDNVKQYWANLKLWFKQKISKEEFDLEAHRLLTQDNVHSHNDFLLAILTRCQILVSTPDGAGSLPWPGGSAAKPGKPKGKKKLSSVRQKFDHRFQPQNPLSGAQQFVAKDPQDDDDLKLCSHTMMLPTRGQLEGRMIVTAYEHGLDNVTEEAVSAVVYAVENHLKDILTSVVSRRKAYRLRDGHFKYAFGSNVTPQPYLKNSVVAYNNLIESPPAFTAPCAGQNPASHPPPDDAEQQAALLLACSGDTLPASLPPVNMYDLFEALQVHREVIPTHTVYALNIERIITKLWHPNHEELQQDKVHRQRLAAKEGLLLC,soluble
13,SAYIHIPFCEHICHYCDFNKYFIQSQPVDEYLNALEQEMINTIAKTGQPDLKTIFIGGGTPTSLSEEQLKKLMDMINRVLKPSSDLSEFAVDANPDDLSAEKLKILKEAGVNRLSFGVQTFEDDLLEKIGRVHKQKDVFTSFERAREIGFENISLDLMFGLPGQTLKHLEHSINTALSLDAEHYSVYSLIVEPKTVFYNLMQKGRLHLPPQEQEAEMYEIVMSKMEAHGIHQYEISNFAKAGMESKHNLTYWSNEQYFGFGAGAHGYIGGTRTVNVGPVKHYIDLIAEKGFPYRDTHEVTTEEQIEEEMFLGLRKTAGVSKKRFAEKYGRSLDGLFPSVLKDLAEKGLIHNSES,not soluble
14,SDAALLLNVEGVKKTILHGGTGELPNFITGSRVIFHFRTMKCDEERTVIDDSRQVGQPMHIIIGNMFKLEVWEILLTSMRVHEVAEFWCDTIHTGVYPILSRSLRQMAQGKDPTEWHVHTCGLANMFAYHTLGYEDLDELQKEPQPLVFVIELLQVDAPSDYQRETWNLSNHEKMKAVPVLHGEGNRLFKLGRYEEASSKYQEAIICLRNLQTKEKPWEVQWLKLEKMINTLILNYCQCLLKKEEYYEVLEHTSDILRHHPGIVKAYYVRARAHAEVWNEAEAKADLQKVLELEPSMQKAVRRELRLLENRMAEKQEEERLRCRNMLSQGATQPPAEPPTEPPAQSSTEPPAEPPTAPSAELSAGPPAEPATEPPPSPGHSLQH,soluble
15,SDAMDKRLKIATIGGGSSYTPELVEGLIKRYHELPVGELWLVDIPEGKEKLEIVGALAKRMVEKAGVPIEIHLTLDRRRALDGADFVTTQFRVGGLEARAKDERIPLKYGVIGQETNGPGGLFKGLRTIPVILDIIRDMEELCPDAWLINFTNPAGMVTEAVLRYTKQEKVVGLCNVPIGMRMGVAKLLGVDADRVHIDFAGLNHMVFGLHVYLDGVEVTEKVIDLVAHPDRSGVTMKNIVDLGWEPDFLKGLKVLPCPYHRYYFQTDKMLAEELEAAKTKGTRAEVVQQLEKELFELYKDPNLAIKPPQLEKRGGAYYSDAACSLISSIYNDKRDIQPVNTRNNGAIASISAESAVEVNCVITKDGPKPIAVGDLPVAVRGLVQQIKSFERVAAEAAVTGDYQTALVAMTINPLVPSDTIAKQILDEMLEAHKEYLPQFFKQAKATAGN,soluble
16,SDLVGVASPEPGTAAAWGPSKCPWAIPQNTISCSLADVMSEQLAKELQLEEEAAVFPEVAVAEGPFITGENIDTSSDLMLAQMLQMEYDREYDAQLRREEKKFNGDSKVSISFENYRKVHPYEDSDSSEDEVDWQDTRDDPYRPAKPVPTPKKGFIGKGKDITTKHDEVVCGRKNTARMENFAPEFQVGDGIGMDLKLSNHVFNALKQHAYSEERRSARLHEKKEHSTAEKAVDPKTRLLMYKMVNSGMLETITGCISTGKESVVFHAYGGSMEDEKEDSKVIPTECAIKVFKTTLNEFKNRDKYIKDDFRFKDRFSKLNPRKIIRMWAEKEMHNLARMQRAGIPCPTVVLLKKHILVMSFIGHDQVPAPKLKEVKLNSEEMKEAYYQTLHLMRQLYHECTLVHADLSEYNMLWHAGKVWLIDVSQSVEPTHPHGLEFLFRDCRNVSQKGGVKEALSERELFNAVSGLNITADNEADFLAEIEALEKMNEDHVQKNGRKAASFLKDDGDPPLLYDE,soluble
